In publication PMC4357396 one finds dH data, which are given here for one substance.

This experiment deals with biotinylated HLA-A*0201-…. The experiment is described as follows: SPR; BIAcore T100, CM5 chip; A2-EAA on the chip, MEL5 injected (ten serial dilutions, 45 uL/min); KDs by equilibrium analysis in triplicate at 5, 10, 15, 20, 25 and 30°C, nonlinear van't Hoff fit with T0 = 298 K; 10 mM HEPES pH 7.4, 150 mM NaCl, 3 mM EDTA, 0.005% P20; HLA-A*0201-… as negative control surface. A general note: SPR reads the build-up and loss of mass on a sensor chip optically.

Substance MEL5 TCR registered a dH of -14 kcal/mol.
